Experimental findings from article PMC2191694 are described below.

Series [1] has as its target T1, Oct-2 (UniProt P09086 1-479). In words: competition.
For series [2], the target named is T1, Oct-2. In words: competition. The source holds these as a separate data set.
Series [3] addresses T1, Oct-2. Description: EMSA.

T1 sequence (P09086 whole entry): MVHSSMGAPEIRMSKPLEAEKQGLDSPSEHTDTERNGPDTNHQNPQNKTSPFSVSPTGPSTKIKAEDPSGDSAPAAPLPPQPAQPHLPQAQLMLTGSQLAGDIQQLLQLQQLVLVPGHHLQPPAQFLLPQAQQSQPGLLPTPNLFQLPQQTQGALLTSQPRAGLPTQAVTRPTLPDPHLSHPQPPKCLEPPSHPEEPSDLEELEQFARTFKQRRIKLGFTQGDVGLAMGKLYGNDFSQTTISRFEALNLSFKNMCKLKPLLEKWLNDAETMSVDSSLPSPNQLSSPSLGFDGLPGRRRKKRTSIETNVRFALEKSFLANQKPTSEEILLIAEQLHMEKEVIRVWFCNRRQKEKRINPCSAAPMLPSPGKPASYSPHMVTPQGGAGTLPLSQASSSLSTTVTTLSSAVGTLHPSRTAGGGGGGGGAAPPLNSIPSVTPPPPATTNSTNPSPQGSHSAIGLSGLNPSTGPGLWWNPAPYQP

B1: IL2-OAP/mOCT (dsDNA)
DNA 1: TTGAAAATATGTGTAATATAATACTCATTT
DNA 2: AAATGAGTATTATATTACACATATTTTCAA
With B1, the binding result with Oct-2 [1] is given as “no binding”.

B2: IL2-mOAP/OCT (dsDNA)
DNA 1: TTGAAAATATTTTTAATATGTAAAACATTT
DNA 2: AAATGTTTTACATATTAAAAATATTTTCAA
As to B2, the binding result with Oct-2 [2] is recorded as “binds”.

B3: IL2-deltaOAP/OCT (dsDNA)
DNA 1: ATATGTAAAACATTT
DNA 2: AAATGTTTTACATAT
Take B3: the binding result with Oct-2 [3] is given as “binds”.
